For two variants, response results are on record in paper PMC8931434.

B1: CerS2-HA [not stated] / FATP2-Flag [human] (parent)
chain 1: MLQTLYDYFWWERLWLPVNLTWADLEDRDGRVYAKASDLYITLPLALLFLIVRYFFELYVATPLAALLNIKEKTRLRAPPNATLEHFYLTSGKQPKQVEVELLSRQSGLSGRQVERWFRRRRNQDRPSLLKKFREASWRFTFYLIAFIAGMAVIVDKPWFYDMKKVWEGYPIQSTIPSQYWYYMIELSFYWSLLFSIASDVKRKDFKEQIIHHVATIILISFSWFANYIRAGTLIMALHDSSDYLLESAKMFNYAGWKNTCNNIFIVFAIVFIITRLVILPFWILHCTLVYPLELYPAFFGYYFFNSMMGVLQLLHIFWAYLILRMAHKFITGKLVEDERSDREETESSEGEEAAAGGGAKSRPLANGHPILNNNHRKND
chain 2: not shown

The variants in this assay derive from B1. Description: co-immunoprecipitation (anti-HA IP, anti-Flag western blot, quantified). Conditions: with FATP2-Flag [human]; CerS2-/- Hek293T cells, 48 h after transfection; three independent experiments; read off a plot.
As for chain 1 H212A H213A, the response is 1.4.
In the case of chain 1 S341A T346A S348A S349A, the response was 6.2.
